Experimental data as given in patent US20130295102A1 (Novartis, published 2013).

Columns and labels:
[1] = target: Cynomolgus Factor P (cynomolgus); test: cell-based or functional assay
[2] = target: T1, Human Factor P (human, UniProt P27918 29-469); test: cell-based or functional assay
[3] = target: T1, Human Factor P; test: SET, solution equilibrium titration
Protocol: In SET, a constant amount of antibody is incubated with different concentrations of antigen until equilibrium is reached. The concentration of free antibody in the equilibrated solution is determined by applying the solution on an antigen coated MSD™ plate (Meso Scale Discovery™) followed by incubation with an ECL-labeled secondary antibody and measurement of signal intensity. At low antigen concentrations, a strong signal is achieved (high concentration of free antibody which binds to the antigen on the plate) whereas for high antigen concentration, the antibody is completely antigen-captured, resulting in a low signal. If a sufficient number of antigen concentrations in a matching range are available, the titration curve allows for a reasonable determination of the affinity, using the appropriate fit model. […] The constant concentration of antibody applied in the assay should be in the range of, or below, the KD (Table 4).
Human Factor P (Complement Technology cat#: A139) and Cyno Factor P purified from cyno serum (protocol adapted from Nakano, et al., (1986) J Immunol Methods 90:77-83) were coated on standard binding MSD plates (Meso-Scale Discovery, 384-well: MSD cat#: L21XA, 96-well: MSD cat#: L15XA) at 0.2-0.3 μg/ml in 25 μl PBS and incubated overnight at 4° C. Factor P inhibitors were diluted to a fixed concentration (1 pM or 10 pM) in incubation buffer (PBS with 2% BSA (Sigma cat#: A4503) and 1% Tween20 and 1% Triton-X (Sigma cat#: 234729)), and added to a serial dilution of Factor P (human or cyno) in incubation buffer. Samples were allowed to reach equilibrium by incubation at RT overnight. Plates were washed 3× in wash buffer (PBS with 0.05% Tween20), and blocked with 100 μl incubation buffer at RT for 2 hrs. Plates were washed 3× in wash buffer. Sample containing Factor P inhibitors and Factor P titration were added to the plate (25 μl), and incubated at RT for 15 min. Plates were washed 3× in wash buffer. 25 μl detection antibody was added (Anti-Human (Goat) Sulfo-TAG, 1:1000 in incubation buffer, MSD cat#: R32AJ-1), and incubated at RT for 60 min. Plates were washed 3× in wash buffer, and 50 μl of 1×MSD Read buffer T was added (with surfactant, MSD cat#: R92TC-1). Plates were read on a MSD Spector Imager 6000.

[4] = target: T1, Human Factor P; test: Biacore SPR, captured Factor P

T1 sequence (P27918 29-469 limits assumed): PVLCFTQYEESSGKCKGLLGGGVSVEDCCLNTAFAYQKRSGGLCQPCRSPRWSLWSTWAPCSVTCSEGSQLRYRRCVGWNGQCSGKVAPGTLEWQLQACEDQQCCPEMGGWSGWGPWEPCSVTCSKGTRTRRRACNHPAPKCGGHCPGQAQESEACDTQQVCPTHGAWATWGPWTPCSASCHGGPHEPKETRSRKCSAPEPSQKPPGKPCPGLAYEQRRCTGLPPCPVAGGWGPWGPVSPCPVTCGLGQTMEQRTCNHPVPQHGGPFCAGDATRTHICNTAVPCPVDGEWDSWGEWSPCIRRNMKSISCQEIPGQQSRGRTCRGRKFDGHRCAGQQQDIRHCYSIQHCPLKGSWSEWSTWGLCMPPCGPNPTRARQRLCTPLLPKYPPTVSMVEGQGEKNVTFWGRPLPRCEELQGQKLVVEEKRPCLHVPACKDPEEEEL

Row | Binder | Hemolytic assay IC50 (nM), 10% serum [1] [nM] | MAC Deposition, 20% Serum EC50 [1] [nM] | Hemolytic assay IC50 (nM), 10% serum [2] [nM] | MAC Deposition, 20% Serum EC50 [2] [nM] | Kd [3] [nM] | Kd [4] [nM] | koff [4] [s⁻¹] | kon [4] [M⁻¹ s⁻¹]
1 | NVS804 (Fab, V domains shown) VH: EVQLVQSGAEVKKPGSSVKVSCKASGGTFSSYAISWVRQAPGQGLEWMGRIIPIFGTANYAQKFQGRVTITADESTSTAYMELSSLRSEDTAVYYCARHGGYIFDSWGQGTLVTVSS VL: SYVLTQPPSVSVAPGKTARISCSGDNLGSKYVDWYQQKPGQAPVLVIYSDNNRPSGIPERFSGSNSGNTATLTISGTQAMDEADYYCATYDSSPRTEVFGGGTKLTVLG | 14.4 | 8.51 | 12.4 | 5.85 | 0.0008 | 0.005 | 1.29e-05 | 2.72e+06
2 | NVS808 (Fab, V domains shown) VH: EVQLVQSGAEVKKPGSSVKVSCKASGGTFSSYAISWVRQAPGQGLEWMGRIIPIFGTANYAQKFQGRVTITADESTSTAYMELSSLRSEDTAVYYCARHGGYIFDSWGQGTLVTVSS VL: SYELTQPPSVSVAPGQTARISCSGDNLGSKYVDWYQQKPGQAPVLVIYSDNNRPSGIPERFSGSNSGNTATLTISGTQAEDEADYYCQTYTSGNNYLVFGGGTKLTVLG | 15.5 | 8.38 | 13.3 | 6.51 | 0.107 | 0.195 | 0.000154 | 791000
3 | NVS805 (Fab, V domains shown) VH: EVQLVQSGAEVKKPGSSVKVSCKASGGTFSSYAISWVRQAPGQGLEWMGRIIPIFGTANYAQKFQGRVTITADESTSTAYMELSSLRSEDTAVYYCARHGGYVFDSWGQGTLVTVSS VL: SYVLTQPPSVSVAPGKTARISCSGDNLGSKYVDWYQQKPGQAPVLVIYSDNNRPSGIPERFSGSNSGNTATLTISGTQAMDEADYYCATYDSSPRTEVFGGGTKLTVLG | 22.1 | 5.95 | 12.8 | 5.9 | 0.0003 | 0.003 | 9.88e-06 | 3.61e+06
4 | NVS806 (Fab, V domains shown) VH: EVQLVQSGAEVKKPGSSVKVSCKASGGTFSSYAISWVRQAPGQGLEWMGRIIPIFGTANYAQKFQGRVTITADESTSTAYMELSSLRSEDTAVYYCARHGGYVFDSWGQGTLVTVSS VL: SYELTQPPSVSVAPGQTARISCSGDNLGSKYVDWYQQKPGQAPVLVIYSDNNRPSGIPERFSGSNSGNTATLTISGTQAEDEADYYCQTYTSGNNYLVFGGGTKLTVLG | 13.9 | 6.51 | 10.1 | 5.74 | 0.018 | 0.052 | 2.24e-05 | 434000
5 | NVS807 (Fab, V domains shown) VH: EVQLVQSGAEVKKPGSSVKVSCKASGGTFSSYAISWVRQAPGQGLEWMGRIIPIFGTANYAQKFQGRVTITADESTSTAYMELSSLRSEDTAVYYCARHGGYYFDSWGQGTLVTVSS VL: SYELTQPPSVSVAPGQTARISCSGDNLGSKYVDWYQQKPGQAPVLVIYSDNNRPSGIPERFSGSNSGNTATLTISGTQAEDEADYYCQTYTSGNNYLVFGGGTKLTVLG | 12.6 | 6.35 | 12.9 | 5.4 | 0.027 | 0.106 | 0.000123 | 1.21e+06
6 | NVS809 (Fab, V domains shown) VH: EVQLVQSGAEVKKPGSSVKVSCKASGGTFSSYAISWVRQAPGQGLEWMGRIIPIFGTANYAQKFQGRVTITADESTSTAYMELSSLRSEDTAVYYCARHGGYYFDSWGQGTLVTVSS VL: SYVLTQPPSVSVAPGKTARISCSGDNLGSKYVDWYQQKPGQAPVLVIYSDNNRPSGIPERFSGSNSGNTATLTISGTQAMDEADYYCATYDSSPRTEVFGGGTKLTVLG | 12.8 | 5.9 | 12.1 | 6.46 | 0.0042 | 0.0247 | 0.000104 | 4.25e+06
